Data taken from article PMC4132694 (Cellular signalling, 2013).

B1: GST-JNK1 (human JNK1α1) (enzyme, UniProt P45983-2 1-384, looked up)
chain: MSRSKRDNNFYSVEIGDSTFTVLKRYQNLKPIGSGAQGIVCAAYDAILERNVAIKKLSRPFQNQTHAKRAYRELVLMKCVNHKNIIGLLNVFTPQKSLEEFQDVYIVMELMDANLCQVIQMELDHERMSYLLYQMLCGIKHLHSAGIIHRDLKPSNIVVKSDCTLKILDFGLARTAGTSFMMTPYVVTRYYRAPEVILGMGYKENVDLWSVGCIMGEMVCHKILFPGRDYIDQWNKVIEQLGTPCPEFMKKLQPTVRTYVENRPKYAGYSFEKLFPDVLFPADSEHNKLKASQARDLLSKMLVIDASKRISVDEALQHPYINVWYDPSEAEAPPPKIPDKQLDEREHTIEEWKELIYKEVMDLEERTKNGVIRGQPSPLAQVQQ
B2: GST-JNK3 (human JNK3α1) (enzyme, UniProt P53779-2 1-422, looked up)
chain: MSLHFLYYCSEPTLDVKIAFCQGFDKQVDVSYIAKHYNMSKSKVDNQFYSVEVGDSTFTVLKRYQNLKPIGSGAQGIVCAAYDAVLDRNVAIKKLSRPFQNQTHAKRAYRELVLMKCVNHKNIISLLNVFTPQKTLEEFQDVYLVMELMDANLCQVIQMELDHERMSYLLYQMLCGIKHLHSAGIIHRDLKPSNIVVKSDCTLKILDFGLARTAGTSFMMTPYVVTRYYRAPEVILGMGYKENVDIWSVGCIMGEMVRHKILFPGRDYIDQWNKVIEQLGTPCPEFMKKLQPTVRNYVENRPKYAGLTFPKLFPDSLFPADSEHNKLKASQARDLLSKMLVIDPAKRISVDDALQHPYINVWYDPAEVEAPPPQIYDKQLDEREHTIEEWKELIYKEVMNSEEKTKNGVVKGQPSPSAQVQQ
B3: full-length wild-type (WT) SMTNL2 (Smoothelin-like 2), [35S]-labeled (natural protein, human, UniProt Q2TAL5-1 1-461, looked up)
chain: MEPAPDAQEARTVREALGRYEAALEGAVRALHEDMRGLQRGVERRVAEAMRLAGPLARTVADLQRDNQRLQAQLERLTRQVEALGLASGMSPVPGTPGTPSPPPAPGVPDRAPRLGSARFASHATFSLSGRGQSLDHDEASESEMRKTSNSCIMENGHQPGAGPGDGPPEIAQNFSAPDPPRPRPVSLSLRLPHQPVTAITRVSDRFSGETSAAALSPMSAATLGGLNPSPSEVITPWTPSPSEKNSSFTWSVPSSGYGAVTASKHSNSPPLVTPPQSPVSPQPPAITQVHRQGERRRELVRSQTLPRTSEAQARKALFEKWEQETAAGKGKGEARARLKRSQSFGVASASSIKQILLEWCRSKTLGYQHVDLQNFSSSWSDGMAFCALVHSFFPDAFDYNSLSPTQRQKNFELAFTMAENLANCERLIEVEDMMVMGRKPDPMCVFTYVQSLYNHLRRFE
modifications: [35S]-methionine label

How the values were obtained:
Assay in all cases: pull-down
[1] = biological target: B3
GST-JNK1 (human JNK1α1) = biological target: B1
GST-JNK2 (human JNK2α2) = GST-JNK2 (human JNK2α2) (human, UniProt P45984-1 1-424)
GST-JNK3 (human JNK3α1) = biological target: B2

Kd [1] [µM] | percent of input bound (GST-JNK1 (human JNK1α1)) | percent of input bound (GST-JNK2 (human JNK2α2)) | percent of input bound (GST-JNK3 (human JNK3α1)) | Binder
~50 |  |  |  | B1
~4 |  |  |  | B2
 | 8 % of input | 65 % of input | 50 % of input | B3
